Data as given in paper PMC4000066 (Cell, 2014).
Values belong to the binder of their own block, whether it stands above or below them.

Tests used:
[1] = target: endogenous ASC of THP-1 cells (human (endogenous in THP-1), UniProt Q9ULZ3 1-195); test: co-IP
[2] = target: ASC^FL (from His-MBP-ASC^FL after removal of His-MBP by TEV) (UniProt Q9ULZ3 1-195); test: pull-down
Sequence of ASC^FL (from His-MBP-ASC^FL after removal of His-MBP by TEV) (Q9ULZ3 whole entry): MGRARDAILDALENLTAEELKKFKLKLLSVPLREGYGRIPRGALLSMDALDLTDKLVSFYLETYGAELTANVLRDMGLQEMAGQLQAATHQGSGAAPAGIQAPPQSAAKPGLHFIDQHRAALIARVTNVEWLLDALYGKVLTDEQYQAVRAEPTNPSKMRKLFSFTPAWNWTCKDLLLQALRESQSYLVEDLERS

Sequence of endogenous ASC of THP-1 cells (Q9ULZ3 whole entry): as above

- stoichiometry N [1]: ~3.5 fold (caspase-1 to ASC)
B1: endogenous caspase-1 of THP-1 cells (enzyme, human (endogenous in THP-1), UniProt P29466 1-404, looked up)
chain: MADKVLKEKRKLFIRSMGEGTINGLLDELLQTRVLNKEEMEKVKRENATVMDKTRALIDSVIPKGAQACQICITYICEEDSYLAGTLGLSADQTSGNYLNMQDSQGVLSSFPAPQAVQDNPAMPTSSGSEGNVKLCSLEEAQRIWKQKSAEIYPIMDKSSRTRLALIICNEEFDSIPRRTGAEVDITGMTMLLQNLGYSVDVKKNLTASDMTTELEAFAHRPEHKTSDSTFLVFMSHGIREGICGKKHSEQVPDILQLNAIFNMLNTKNCPSLKDKPKVIIIQACRGDSPGVVWFKDSVGVSGNLSLPTTEEFEDDAIKKAHIEKDFIAFCSSTPDNVSWRHPTMGSVFIGRLIEHMQEYACSCDVEEIFRKVRFSFEQPDGRAQMPTTERVTLTRCFYLFPGH

- binding result [2]: binds
B2: His-GFP-caspase-1^CARD (domain or fragment, UniProt P29466 1-91, looked up)
chain: MADKVLKEKRKLFIRSMGEGTINGLLDELLQTRVLNKEEMEKVKRENATVMDKTRALIDSVIPKGAQACQICITYICEEDSYLAGTLGLSA
